Biological target: ubiquitin-D77

B1: YUH1 (protein)
chain: MSGENRAVVPIESNPEVFTNFAHKLGLKNEWAYFDIYSLTEPELLAFLPRPVKAIVLLFPINEDRKSSTSQQITSSYDVIWFKQSVKNACGLYAILHSLSNNQSLLEPGSDLDNFLKSQSDTSSSKNRFDDVTTDQFVLNVIKENVQTFSTGQSEAPEATADTNLHYITYVEENGGIFELDGRNLSGPLYLGKSDPTATDLIEQELVRVRVASYMENANEEDVLNFAMLGLGPNWE
With B1 the “fluorescence intensity over time (real-time deubiquitinase assay with 500 nM ubiquitin-D77, 10 nM fluorescein-tagged ubiquitin, 10 nM tIVR)” value was “Activity of YUH1 released ubiquitin proteins from conjugation to aspartic acid (i.e., the D77 residue), and thus increased the concentration of free ubiquitin protein”.
